Patent US20220017612A1 (TILOS THERAPEUTICS, published 2022)
Substitutions are numbered along the chain they refer to.

Legend:
[1] = molecular target: T1, human LAP-TGFβ1 overexpressed on cells (human, UniProt P01137 30-390); assay: flow cytometry; legend box on the sheet: black HT1080-null, grey HT1080-huB1
T1 construct: HT1080 or P3U1 cells overexpressing wild-type human LAP-TGFβ1; also called HT1080-huB1; HT1080-hβ1

[2] = molecular target: murine LAP-TGFβ1 overexpressed on cells (mouse, UniProt P04202 30-390); assay: cell-based or functional assay
Chain of murine LAP-TGFβ1 overexpressed on cells (P04202 30-390): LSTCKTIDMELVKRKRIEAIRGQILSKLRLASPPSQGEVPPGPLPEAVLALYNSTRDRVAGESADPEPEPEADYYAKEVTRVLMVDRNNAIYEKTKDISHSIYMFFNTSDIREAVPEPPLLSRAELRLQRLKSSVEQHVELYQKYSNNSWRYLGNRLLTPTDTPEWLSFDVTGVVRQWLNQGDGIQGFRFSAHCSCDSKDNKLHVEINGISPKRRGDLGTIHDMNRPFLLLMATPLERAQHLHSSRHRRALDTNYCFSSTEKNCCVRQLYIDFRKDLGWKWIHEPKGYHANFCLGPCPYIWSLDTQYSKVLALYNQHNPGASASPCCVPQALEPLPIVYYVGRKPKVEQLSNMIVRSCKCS

[3] = molecular target: T1, human LAP-TGFβ1 overexpressed on cells; assay: cell-based or functional assay
LAP-TGFβ1 on U937 cells [4] = molecular target: T2, LAP-TGFβ1 on U937 cells (Homo sapiens, UniProt P01137); assay: flow cytometry, U937 cells, Alexa 647 antibody, % LAP+ cells
T2 construct: cell surface, endogenous; also called LAP+ U937 cells
T2 sequence (P01137 30-390 limits assumed): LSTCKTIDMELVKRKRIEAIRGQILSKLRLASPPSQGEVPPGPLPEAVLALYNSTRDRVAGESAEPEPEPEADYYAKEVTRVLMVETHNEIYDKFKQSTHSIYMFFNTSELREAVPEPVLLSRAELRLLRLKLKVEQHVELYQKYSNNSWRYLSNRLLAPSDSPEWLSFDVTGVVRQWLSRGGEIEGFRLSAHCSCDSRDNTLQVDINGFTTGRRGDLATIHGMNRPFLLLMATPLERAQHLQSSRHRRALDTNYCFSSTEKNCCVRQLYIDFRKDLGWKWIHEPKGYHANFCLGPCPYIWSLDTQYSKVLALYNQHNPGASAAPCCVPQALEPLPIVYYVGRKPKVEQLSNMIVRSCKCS
Method: (§1) Anti-LAP antibodies were tested for their ability to bind to U937 cells, a myeloid cell line derived from a patient with histiocytic lymphoma. U937 cells were incubated with FACS buffer and human Fc block followed by incubation with varying concentrations of Alexa 647 conjugated 28G11_hyb, 22F9_mIgG2a, or 20E6_mIgG2a. In a separate experiment U937 cells were incubated with FACS buffer and human Fc block followed by incubation with 10 ug/ml of Alexa 647 conjugated 28G11_hyb, 22F9_mIgG2a, 20E6_mIgG2a or mIgG2a isotype control (FIGS. 10E and 10F). Representative dot plots are shown in FIG. 10G; in these plots, antibodies were at 10 ug/ml.

LAP-TGFβ1 on U937 cells [5] = molecular target: T2, LAP-TGFβ1 on U937 cells; assay: flow cytometry dot plot against GARP, U937 cells, Alexa 647 antibody at 10 ug/ml
Method: as §1

[6] = molecular target: T3, mature human TGFβ1 (free TGFβ1, without LAP) (human, UniProt P01137 279-390); assay: TGFβ1 ELISA after pre-incubation of 1000 pg mature TGFβ1 with antibody; loss of signal reflects binding
T3 construct: also called mature TGFβ; free human TGFβ1
T3 sequence (P01137 279-390 limits assumed): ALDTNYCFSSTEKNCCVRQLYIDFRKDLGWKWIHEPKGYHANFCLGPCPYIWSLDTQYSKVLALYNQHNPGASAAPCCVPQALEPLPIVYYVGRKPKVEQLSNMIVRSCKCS
Method: To determine whether anti-LAP antibodies 28G11_hIgG1, 22F9_hIgG1, 20E6_hIgG1, 17G8_hIgG1, and 24E3_hIgG1, bind to free human TGFβ1 (i.e., mature TGFβ1 that lacks LAP), the ability of the antibodies to inhibit an anti-TGFβ ELISA was evaluated. Briefly, mature TGFβ1 (1000 pg) was incubated with the indicated anti-LAP antibodies at 10 μg/mL, an isotype control antibody as a negative control or the commercially available anti-TGFβ antibody 1D11 as a positive control for 10 minutes on ice. For example, the 1D11 antibody is commercially available from any number of sellers, for example Bio x Cell Inc. (West Lebanon, N.H.). Supernatants were assayed in a TGFβ1 ELISA (R&D Systems) according to the manufacturer instructions to measure free TGFβ1. […] Note that Figure and FIG. are used interchangeably in this application.

[7] = molecular target: T4, human-chicken LAP-TGFβ1 chimera #2.2 on HT1080 cells (human/chicken chimera, UniProt P01137 30-390); assay: flow cytometry, HT1080 cells; grey bar = no anti-LAP antibody
T4 construct: also called HT1080-ch2.2
T4 sequence (P01137 other isoform, or with tags, fused parts or gaps mutant): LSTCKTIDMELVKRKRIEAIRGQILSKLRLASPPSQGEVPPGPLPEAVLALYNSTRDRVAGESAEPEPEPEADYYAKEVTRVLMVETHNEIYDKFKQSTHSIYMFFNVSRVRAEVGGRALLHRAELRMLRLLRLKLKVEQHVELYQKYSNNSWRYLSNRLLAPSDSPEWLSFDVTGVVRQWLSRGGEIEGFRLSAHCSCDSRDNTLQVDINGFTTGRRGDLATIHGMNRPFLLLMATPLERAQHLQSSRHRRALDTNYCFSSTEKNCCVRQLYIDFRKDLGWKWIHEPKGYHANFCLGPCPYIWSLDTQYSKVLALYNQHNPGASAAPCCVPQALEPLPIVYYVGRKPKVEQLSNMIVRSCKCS
Method: (§2) This Example describes the binding of anti-LAP antibodies to LAP-TGFβ isoforms and LAP-TGFβ variants. In addition to antibodies 28G11_hIgG1, 22F9_hIgG1, and 20E6_hIgG1, anti-LAP antibodies 17G8_hIgG1, 24E3_hIgG1, and 2C9_(hyb) were also tested in this experiment. Briefly, 4×10⁵ each of (a) HT1080 cells, (b) HT1080 cells overexpressing human LAP-TGFβ1, (c) HT1080 cells overexpressing human LAP-TGFβ2, (d) HT1080 cells overexpressing human LAP-TGFβ3, (e) HT1080 cells overexpressing murine LAP-TGFβ1, (f) P3U1 cells, (g) P3U1 cells overexpressing LAP-TGFβ1 and GARP, and (h) P3U1 cells overexpressing LAP-TGFβ1 and LRRC33 were cultured in 96-well plates. The plates were centrifuged for 5 min at 1,500 rpm, liquid was removed, and cells were resuspended with 200 μL FACS buffer. The plates were centrifuged again, diluted primary antibody was added to each well, and the plates were incubated on ice for 20 minutes, followed by centrifugation. The cells were resuspended in 200 μL FACS buffer, centrifuged again, and resuspended in 50 μL diluted secondary antibody (Alexa647-anti-Human IgG or APC-anti-Mouse IgG). The plates were incubated on ice for 20 minutes in the dark, washed twice with 200 μL FACS buffer, and cells from each well (in 200 μL FACS buffer) were read on the Attune NXT instrument.
(§3) Cells were processed for flow cytometry in the same manner described above for the isoform-specific binding experiments.

[8] = molecular target: T5, human LAP-TGFβ1 with a Y74T mutation on HT1080 cells (human, UniProt P01137 30-390); assay: as above
T5 construct: also called HT1080-Y74T; open conformation
T5 sequence (P01137 other isoform, or with tags, fused parts or gaps Y74T Y74T): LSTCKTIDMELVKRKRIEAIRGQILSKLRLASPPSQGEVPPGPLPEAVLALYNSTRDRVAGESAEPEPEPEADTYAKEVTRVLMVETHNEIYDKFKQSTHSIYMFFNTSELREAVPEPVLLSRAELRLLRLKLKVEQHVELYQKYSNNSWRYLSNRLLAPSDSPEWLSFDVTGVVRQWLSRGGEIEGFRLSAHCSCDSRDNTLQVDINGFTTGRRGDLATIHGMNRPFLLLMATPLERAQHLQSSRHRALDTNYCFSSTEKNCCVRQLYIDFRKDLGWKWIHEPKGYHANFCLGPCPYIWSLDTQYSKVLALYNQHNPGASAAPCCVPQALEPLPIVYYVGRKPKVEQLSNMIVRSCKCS
Method: as §2, §3

[9] = molecular target: T6, LAP-only variant of human TGFβ1 (empty LAP) on HT1080 cells (human, UniProt P01137 30-277); assay: as above
T6 construct: LAP without the mature cytokine; also called HT1080-emptyLAP; LAP-only construct
T6 sequence (P01137 30-277, change not shown): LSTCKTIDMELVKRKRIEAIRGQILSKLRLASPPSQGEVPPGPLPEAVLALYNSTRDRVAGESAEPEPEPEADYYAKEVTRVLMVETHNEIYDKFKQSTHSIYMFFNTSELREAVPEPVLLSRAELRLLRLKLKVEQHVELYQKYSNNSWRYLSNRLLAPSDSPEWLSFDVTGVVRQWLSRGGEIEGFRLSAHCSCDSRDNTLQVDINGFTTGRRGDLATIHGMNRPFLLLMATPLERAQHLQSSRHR
Method: as §2, §3

[10] = molecular target: T7, human LAP-TGFβ1 with K27C and Y75C mutations on HT1080 cells (human, UniProt P01137 30-390); assay: as above
T7 construct: also called closed conformation
T7 sequence (P01137 other isoform, or with tags, fused parts or gaps K27C Y75C K27C Y75C): as the sequence (P01137 other isoform, or with tags, fused parts or gaps Y74T Y74T) above, with K27C, T74Y, Y75C counted along it
Method: as §2, §3

[11] = molecular target: T8, human LAP-TGFβ2 overexpressed on HT1080 cells (human, UniProt P61812 21-414); assay: flow cytometry titration, HT1080-huB2 cells
T8 construct: also called HT1080-huB2
T8 sequence: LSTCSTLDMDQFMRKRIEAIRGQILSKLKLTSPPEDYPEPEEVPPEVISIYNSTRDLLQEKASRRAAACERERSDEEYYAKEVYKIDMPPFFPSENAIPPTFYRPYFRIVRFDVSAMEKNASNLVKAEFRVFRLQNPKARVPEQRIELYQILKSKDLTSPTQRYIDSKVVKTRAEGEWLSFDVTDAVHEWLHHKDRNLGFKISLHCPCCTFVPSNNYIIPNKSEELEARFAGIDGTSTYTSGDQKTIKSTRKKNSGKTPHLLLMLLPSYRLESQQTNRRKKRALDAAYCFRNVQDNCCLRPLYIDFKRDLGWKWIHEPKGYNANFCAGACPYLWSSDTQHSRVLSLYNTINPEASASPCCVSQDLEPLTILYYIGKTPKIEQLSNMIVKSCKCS
Method: as §2

[12] = molecular target: T9, murine LAP-TGFβ1 with a C-terminal polyhistidine purification tag (mouse, UniProt P04202 30-390); assay: BLI, antibody on tip, 1:1 model
T9 construct: also called Mouse LAP-TGFβ1
T9 sequence (P04202 30-390 limits assumed): as the sequence (P04202 30-390) above
Method: (§4) The chimeric antibodies were biotinylated using EZ-Link SulfoNHS-LC-Biotin (ThermoFisher). A streptavidin-functionalized tip was equilibrated in binding buffer (10 mM sodium phosphate, 150 mM sodium chloride, 1% (w/v) bovine serum albumin, 0.05% (w/v) sodium azide, pH 7.4). The tip was dipped in a 10 μg/mL solution of biotinylated, chimeric anti-LAP in binding buffer for 15 seconds to load the tip with antibody. The antibody-loaded tip was then washed in binding buffer and placed in a solution containing 0-24 nM of LAP-TGFβ1 (either a fusion protein containing a human IgG1 Fc domain fused to human LAP-TGFβ1 or a murine LAP-TGFβ1 with a C-terminal polyhistidine purification tag). The antigen was allowed to bind to antibody for 5 minutes (association phase), and then the tip was moved to binding buffer (dissociation phase). The association and dissociation phases were fit to a 1:1 binding model to determine the binding rate constants.

[13] = molecular target: T10, fusion protein of a human IgG1 Fc domain and human LAP-TGFβ1 (human, UniProt P01137 30-390); assay: BLI, antibody on tip, 1:1 model
T10 construct: printed both as Fc-huB1 and LAP-TGFβ-Fc; also called Fc-huB1; Fc-human LAP
T10 sequence (P01137 30-390 limits assumed): as the sequence (P01137 30-390 limits assumed) above
Method: as §4

[14] = molecular target: T1, human LAP-TGFβ1 overexpressed on cells; assay: cell-based or functional assay; remark: listed apart in the source
[15] = molecular target: T11, human LAP-TGFβ3 overexpressed on HT1080 cells (human, UniProt P10600 24-412); assay: flow cytometry titration, HT1080-huB3 cells
T11 construct: also called HT1080-huB3
T11 sequence: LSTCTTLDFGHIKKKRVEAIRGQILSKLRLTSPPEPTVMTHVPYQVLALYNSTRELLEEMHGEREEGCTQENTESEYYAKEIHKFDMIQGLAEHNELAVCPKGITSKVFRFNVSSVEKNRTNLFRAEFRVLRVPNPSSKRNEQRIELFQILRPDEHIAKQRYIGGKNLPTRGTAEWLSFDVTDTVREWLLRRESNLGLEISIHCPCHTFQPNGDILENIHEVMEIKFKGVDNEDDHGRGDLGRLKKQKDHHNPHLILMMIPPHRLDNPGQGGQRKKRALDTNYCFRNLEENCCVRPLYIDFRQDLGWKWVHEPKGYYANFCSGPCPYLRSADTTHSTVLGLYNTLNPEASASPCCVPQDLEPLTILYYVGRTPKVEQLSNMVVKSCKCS
Method: as §2

T1 sequence (P01137 30-390): as the sequence (P01137 30-390 limits assumed) above

B1: 28G11_H2.1L3 (antibody, human IgG1, kappa, V domains shown)
VH: EVQLVESGGGLVQPGGSLRLSCAASGFTFTDYYMSWVRQAPGKGLEWLGFIRNKPQGYTTEYSASVKGRFTISRDNSQSSLYLQMNSLKTEDTAVYYCARYTGGGYFDYWGQGTLLTVSS
VL: DIQMTQSPSSLSASVGDRLTISCRASQDISNYLNWYQQKPGKTVKLLIYYTSRLHSGVPSRFSGSGSGTDYTLTISSLQPEDVATYFCQQGDTLPWTFGQGTKLEIKR
B1: binds [1].

B2: 28G11_H2aL3a (antibody, human IgG1, kappa, V domains shown)
VH: B1 VH with L48V, Q56N, Q78K, S79N, L116V
VL: B1 VL with T43V, F87Y
B2: binds [1].

B3: 22F9_mIgG2a (antibody, V domains shown)
VH: QVQLQQPGAELVKPGASVKLSCKASGYTFTSYWMHWVKQRPGQGLEWIGMIHPNSGSTNYNEKFKSKATLTVDKSSSTAYMQLSSLTSEDSAVYYCAYYDYDGFFDVWGTGTTVTVSS
VL: DIVLTQSPASLDVSLGQRATISCRASKSVSTSGYSYMHWYQQKSGQPPKLLIYLASNLESGVPARFSGSGSGTHFTLNIHPVEEEDAATYYCQHSRELPYTFGGGTKLEIK
notes: also called 22F9_IgG2a
With B3 the “IC50 of inhibition of TGFβ1 activation” value [2] was 1 µg/mL, the “IC50 of inhibition of TGFβ1 activation” value [3] was 1.8 µg/mL and the “EC50 (read off the curve)” value (LAP-TGFβ1 on U937 cells [4]) was about 20 µg/mL. For the same binder, the “% of cells in Q1 (antibody axis positive, GARP negative)” value (LAP-TGFβ1 on U937 cells [5]) was 43.8% and the “% of cells in Q2 (antibody axis positive, GARP positive)” value (LAP-TGFβ1 on U937 cells [5]) was 0.44%.

B4: 28G11_hIgG1 (antibody, V domains shown)
VH: EVKLVESGGGLVQPGGSLSLSCAASGFTFTDYYMSWVRQPPGKALEWLGFIRNKPNGYTTEYSASVKGRFTISRDNSQSILYLQMNVLRAEDSATYYCARYTGGGYFDYWGQGTTLTVSS
VL: DIQMTQTTSSLSASLGDRLTISCRASQDISNYLNWYQQKPDGTVKLLIYYTSRLHSGVPSRFSGSGSGTDYSLTISNLEQADIATYFCQQGDTLPWTFGGGTKLEIK
B4: no binding (tested: 10 µg/mL) [6]; no binding [7]; no binding [8]. For the same binder, the binding result [9] was “no binding”, the binding result [10] was “binds” and the “IC50 of inhibition of TGFβ1 activation (ELISA of active TGFβ1)” value [2] was 1 µg/mL. The “IC50 of inhibition of TGFβ1 activation (ELISA of active TGFβ1)” value [3] was 1.4 µg/mL, the binding result [11] was “no binding (tested: about 800 ng/well)” and the Kd [12] was 0.19 nM. It also gave a koff [12] of 0.000158 s⁻¹, a kon [12] of 840000 M⁻¹ s⁻¹ and a Kd [13] of 0.67 nM. The koff [13] was 0.00036 s⁻¹, the kon [13] was 540000 M⁻¹ s⁻¹ and the “Inhibition of human TGFβ1 activation (IC50)” value [14] was 2.3 µg/mL. B4: no binding (tested: about 800 ng/well) [15].
